Assay results as given in paper PMC2795026.
Read-outs that look alike come from different tables or passages of the source.

T1: Brh2 apoprotein (stripped of Dss1) (Ustilago maydis, UniProt Q8NJ74 1-1075)
T1 sequence: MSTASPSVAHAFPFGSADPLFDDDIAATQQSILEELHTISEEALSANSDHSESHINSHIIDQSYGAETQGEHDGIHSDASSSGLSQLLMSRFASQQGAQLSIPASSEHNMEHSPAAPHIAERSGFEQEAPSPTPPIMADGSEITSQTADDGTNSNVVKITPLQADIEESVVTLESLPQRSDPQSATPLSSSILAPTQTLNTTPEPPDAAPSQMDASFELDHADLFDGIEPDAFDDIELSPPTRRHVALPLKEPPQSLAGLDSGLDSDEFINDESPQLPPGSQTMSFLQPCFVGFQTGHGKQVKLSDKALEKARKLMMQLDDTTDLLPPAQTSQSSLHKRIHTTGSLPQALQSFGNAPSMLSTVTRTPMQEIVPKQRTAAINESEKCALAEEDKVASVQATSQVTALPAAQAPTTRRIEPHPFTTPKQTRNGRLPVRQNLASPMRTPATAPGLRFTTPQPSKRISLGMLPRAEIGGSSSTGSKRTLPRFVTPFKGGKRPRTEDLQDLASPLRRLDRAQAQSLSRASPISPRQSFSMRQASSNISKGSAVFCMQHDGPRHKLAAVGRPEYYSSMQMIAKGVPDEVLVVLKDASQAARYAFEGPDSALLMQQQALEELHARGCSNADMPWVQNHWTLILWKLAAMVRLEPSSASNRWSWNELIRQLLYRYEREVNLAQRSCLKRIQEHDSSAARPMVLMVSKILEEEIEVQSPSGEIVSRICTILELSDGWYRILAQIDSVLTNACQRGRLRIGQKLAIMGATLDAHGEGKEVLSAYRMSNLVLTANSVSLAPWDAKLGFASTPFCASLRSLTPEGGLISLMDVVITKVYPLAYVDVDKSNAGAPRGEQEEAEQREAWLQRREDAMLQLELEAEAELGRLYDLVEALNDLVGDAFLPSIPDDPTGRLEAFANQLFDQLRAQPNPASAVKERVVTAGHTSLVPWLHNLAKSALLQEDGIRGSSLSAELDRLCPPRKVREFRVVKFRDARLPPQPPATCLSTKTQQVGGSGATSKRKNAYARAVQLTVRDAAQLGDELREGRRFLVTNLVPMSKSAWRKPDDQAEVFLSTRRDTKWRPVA

T2: MBP-Brh2 (Ustilago maydis, UniProt Q8NJ74 1-1075)
T2 sequence: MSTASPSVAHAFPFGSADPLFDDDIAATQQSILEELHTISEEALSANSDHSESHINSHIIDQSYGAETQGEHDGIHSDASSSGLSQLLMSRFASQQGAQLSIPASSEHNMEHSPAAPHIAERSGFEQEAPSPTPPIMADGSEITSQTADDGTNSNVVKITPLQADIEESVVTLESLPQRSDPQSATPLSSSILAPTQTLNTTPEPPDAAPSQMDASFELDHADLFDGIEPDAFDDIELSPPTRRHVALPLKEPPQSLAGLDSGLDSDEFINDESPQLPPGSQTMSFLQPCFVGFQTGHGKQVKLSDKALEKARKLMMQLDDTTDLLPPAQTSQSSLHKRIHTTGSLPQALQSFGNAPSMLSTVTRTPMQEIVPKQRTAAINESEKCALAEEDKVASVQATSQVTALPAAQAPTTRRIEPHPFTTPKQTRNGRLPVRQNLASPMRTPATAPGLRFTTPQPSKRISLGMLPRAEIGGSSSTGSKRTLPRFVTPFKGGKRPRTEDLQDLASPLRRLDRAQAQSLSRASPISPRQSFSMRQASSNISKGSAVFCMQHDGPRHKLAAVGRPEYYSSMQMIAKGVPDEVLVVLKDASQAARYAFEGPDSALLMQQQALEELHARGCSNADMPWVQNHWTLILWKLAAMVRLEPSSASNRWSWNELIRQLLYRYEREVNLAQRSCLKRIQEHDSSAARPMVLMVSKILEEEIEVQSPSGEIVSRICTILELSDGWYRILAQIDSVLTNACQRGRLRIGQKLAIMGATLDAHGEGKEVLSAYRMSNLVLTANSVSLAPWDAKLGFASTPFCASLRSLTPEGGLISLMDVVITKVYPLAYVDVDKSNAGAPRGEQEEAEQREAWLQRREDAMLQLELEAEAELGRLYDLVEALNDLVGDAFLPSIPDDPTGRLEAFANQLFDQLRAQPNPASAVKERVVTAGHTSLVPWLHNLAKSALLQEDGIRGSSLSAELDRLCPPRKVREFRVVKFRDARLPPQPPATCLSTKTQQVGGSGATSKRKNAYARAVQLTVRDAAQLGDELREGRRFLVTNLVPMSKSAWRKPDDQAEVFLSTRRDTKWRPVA

T3: MBP-Brh2NT-His (Ustilago maydis, UniProt Q8NJ74 1-551)
T3 sequence: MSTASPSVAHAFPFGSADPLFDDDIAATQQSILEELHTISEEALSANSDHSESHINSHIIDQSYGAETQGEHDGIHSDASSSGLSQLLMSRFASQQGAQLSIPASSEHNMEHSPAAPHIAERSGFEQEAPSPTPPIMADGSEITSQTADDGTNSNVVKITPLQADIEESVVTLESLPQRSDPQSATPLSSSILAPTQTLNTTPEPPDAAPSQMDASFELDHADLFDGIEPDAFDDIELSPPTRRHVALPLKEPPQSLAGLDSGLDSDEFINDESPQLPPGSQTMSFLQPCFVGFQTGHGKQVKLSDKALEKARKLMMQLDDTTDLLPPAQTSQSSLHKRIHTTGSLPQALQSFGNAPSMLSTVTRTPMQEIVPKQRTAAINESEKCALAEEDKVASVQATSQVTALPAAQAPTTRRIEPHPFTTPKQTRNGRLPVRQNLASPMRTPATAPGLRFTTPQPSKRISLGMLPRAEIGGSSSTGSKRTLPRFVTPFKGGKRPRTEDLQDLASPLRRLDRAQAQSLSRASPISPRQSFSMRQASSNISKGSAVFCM


Legend:
[1] = molecular target: T1, Brh2 apoprotein (stripped of Dss1); experiment: EMSA
[2] = molecular target: T2, MBP-Brh2; experiment: pull-down
[3] = molecular target: T3, MBP-Brh2NT-His; experiment: EMSA
[4] = molecular target: T2, MBP-Brh2; experiment: pull-down; remark: listed apart in the source

| Binder | binding result [1] | binding result [2] | binding result [3] | binding result [4] |
| --- | --- | --- | --- | --- |
| ss60mer (ssDNA) DNA: GCTGCGCAAGGATAGGTCGAATTTTCTCATTTTCCGCCAGCAGTCCACTTCGATTTAATT | binds | binds | binds |  |
| 3'-biotin ss60mer (ssDNA) DNA: GCTGCGCAAGGATAGGTCGAATTTTCTCATTTTCCGCCAGCAGTCCACTTCGATTTAATT |  |  |  | binds |
